Experimental data as given in patent publication US20020164738.

Molecular target: T1, MAGE-3 protein purified from E. coli (pNB202, pRSET-A, N-terminal His tag)
T1 chain: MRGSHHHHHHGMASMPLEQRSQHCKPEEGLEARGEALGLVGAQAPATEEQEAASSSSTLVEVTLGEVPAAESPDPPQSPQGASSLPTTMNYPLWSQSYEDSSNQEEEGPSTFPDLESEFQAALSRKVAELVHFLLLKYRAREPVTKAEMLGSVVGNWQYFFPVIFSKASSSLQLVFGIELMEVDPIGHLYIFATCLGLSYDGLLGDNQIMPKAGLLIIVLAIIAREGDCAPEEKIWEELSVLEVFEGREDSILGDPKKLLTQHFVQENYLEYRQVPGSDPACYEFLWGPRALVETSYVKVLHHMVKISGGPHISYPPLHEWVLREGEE

B1: pro-caspase-12 (48 kDa) synthesized in vitro, radioactively labeled (protein)
chain: MAARRTHERDPIYKIKGLAKDMLDGVFDDLVEKNVLNGDELLKIGESASFILNKAENLVENFLEKTDMAGKIFAGHIANSQEQLSLQFSNDEDDGPQKICTPSSPSESKRKVEDDEMEVNAGLAHESHLMLTAPHGLQSSEVQDTLKLCPRDQFCKIKTERAKEIYPVMEKEGRTRLALIICNKKFDYLFDRDNADTDILNMQELLENLGYSVVLKENLTAQEMETELMQFAGRPEHQSSDSTFLVFMSHGILEGICGVKHRNKKPDVLHDDTIFKIFNNSNCRSLRNKPKILIMQACRGRYNGTIWVSTNKGIATADTDEERVLSCKWNNSITKAHVETDFIAFKSSTPHNISWKVGKTGSLFISKLIDCFKKYCWCYHLEEIFRKVQHSFEVPGELTQMPTIERVSMTRYFYLFPGN
cleavage of radioactively labeled pro-caspase-12 by mature caspase-12 (SDS-PAGE, autoradiography): Addition of 12 µg of MAGE-3 inhibited the cleavage reaction by caspase-12 almost completely
